For assay [1], the target named is T1, urokinase receptor on MCF-7 human breast cancer cells (human, UniProt Q03405 23-305).
T1 construct: whole, on cells; also called uPA receptor; urokinase receptors
Kind of assay: immunocytochemistry of MCF-7 cells with anti-L-methioninase antibody, 18 h treatment.

For assay [2], the target named is T1, urokinase receptor on MCF-7 human …. The assay can be described thus: displacement assay on MCF-7 cells (summary of Example 1).

T1 sequence (Q03405 23-305): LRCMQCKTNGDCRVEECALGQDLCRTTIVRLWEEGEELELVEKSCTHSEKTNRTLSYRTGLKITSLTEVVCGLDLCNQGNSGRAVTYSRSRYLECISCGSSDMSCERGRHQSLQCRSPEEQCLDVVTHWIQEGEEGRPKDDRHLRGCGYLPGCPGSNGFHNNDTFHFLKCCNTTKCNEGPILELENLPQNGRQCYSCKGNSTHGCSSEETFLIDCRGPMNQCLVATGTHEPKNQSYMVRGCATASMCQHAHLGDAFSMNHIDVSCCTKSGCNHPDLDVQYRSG

B1: L-methioninase from Pseudomonas putida (enzyme)
chain: MRDSHNNTGFSTRAIHHGYDPLSHGGALVPPVYQTATYAFPTVEYGAACFAGEEAGHFYSRISNPTLALLEQRMASLEGGEAGLALASGMGAITSTLWTLLRPGDELIVGRTLYGCTFAFLHHGIGEFGVKIHHVDLNDAKALKAAINSKTRMIYFETPANPNMQLVDIAAVVEAVRGSDVLVVVDNTYCTPYLQRPLELGADLVVHSATKYLSGHGDITAGLVVGRKALVDRIRLEGLKDMTGAALSPHDAALLMRGIKTLALRMDRHCANALEVAQFLAGQPQVELIHYPGLPSFAQYELAQRQMRLPGGMIAFELKGGIEAGRGFMNALQLFARAVSLGDAESLAQHPASMTHSSYTPQERAHHGISEGLVRLSVGLEDVEDLLADIELALEACA
notes: also called free L-methioninase
In the case of B1, in assay [1], the binding result is reported as “no binding (tested: 10^-6 M)”.

B2: ATF-methioninase fusion protein (other)
chain: SNELHQVPSNCDCLNGGTCVSNKYFSNIHWCNCPKKFGGQHCEIDKSKTGSGSGSRDSHNNTGFSTRAIHHGYDPLSHGGALVPPVYQTATYAFPTVEYGAACFAGEEAGHFYSRISNPTLALLEQRMASLEGGEAGLALASGMGAITSTLWTLLRPGDELIVGRTLYGCTFAFLHHGIGEFGVKIHHVDLNDAKALKAAINSKTRMIYFETPANPNMQLVDIAAVVEAVRGSDVLVVVDNTYCTPYLQRPLELGADLVVHSATKYLSGHGDITAGLVVGRKALVDRIRLEGLKDMTGAALSPHDAALLMRGIKTLALRMDRHCANALEVAQFLAGQPQVELIHYPGLPSFAQYELAQRQMRLPGGMIAFELKGGIEAGRGFMNALQLFARAVSLGDAESLAQHPASMTHSSYTPQERAHHGISEGLVRLSVGLEDVEDLLADIELALEACA
notes: also called FP
In the case of B2, the binding result in assay [2] is given as “binds”.
